According to patent US20070009975A1 (DAKOCYTOMATION DENMARK A S, published 2007):

What was measured:
[1] = target: T1, alkylhydroperoxide-reductase of H. pylori (26 kDa-protein) (Helicobacter pylori, UniProt P21762 1-198); assay: sandwich ELISA: polyclonal rabbit anti-H. pylori antigen as catcher, antigen diluted 1:2 from 50 ng/ml, mAb supernatant as detector; lowest antigen concentration with extinction >= 2x control
T1 construct: Purified as an oligomer; also called 26 kDa-antigen; Alkylhydroperoxide reduktase
T1 sequence (looked up): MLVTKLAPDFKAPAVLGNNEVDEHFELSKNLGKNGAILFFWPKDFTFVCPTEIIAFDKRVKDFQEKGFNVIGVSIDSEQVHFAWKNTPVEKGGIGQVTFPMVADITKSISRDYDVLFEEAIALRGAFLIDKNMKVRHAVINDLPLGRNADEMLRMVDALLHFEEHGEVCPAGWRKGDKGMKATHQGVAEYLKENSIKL
Protocol: (§1) Between the single steps the ELISA plate was washed 2 to 3 times with 300 μl PBS with 0.025% Tween (washing buffer) (vol.:vol.). The ELISA plates (MaxiSorb; Nunc) were coated for 1 hour at 37° C. with 100 μl of a solution of a polyclonal rabbit-anti-H. pylori antigen (pAK; approx. 10 μg antibody/ml carbonate buffer, 0.1 M, pH 9.5). In order to block the binding-sites that are still free 200 μl 150 mM PBS with 2% skimmed-milk powder (weight:volume) were pipetted per dish and incubated for 30 min at room temperature. 50 ng/ml purified H. pylori antigens solved in 150 mM PBS were diluted adding 0.1% skimmed-milk powder in 1:2 steps. The buffer served as a negative control. Then, 100 μl culture supernatant diluted 1:10 of the mAK against the same antigen, which is to be analysed, was added and incubated for 30 for 60 min at room temperature. […] The lowest concentration in which an extinction was still detected that was larger than or the same as twice the control was accepted as detection limit.

Hsp60 of H. pylori = target: T2, Hsp60 of H. pylori (Helicobacter pylori, UniProt P42383 1-546); assay: as above
T2 construct: Purified as an oligomer
T2 sequence (P42383 whole entry): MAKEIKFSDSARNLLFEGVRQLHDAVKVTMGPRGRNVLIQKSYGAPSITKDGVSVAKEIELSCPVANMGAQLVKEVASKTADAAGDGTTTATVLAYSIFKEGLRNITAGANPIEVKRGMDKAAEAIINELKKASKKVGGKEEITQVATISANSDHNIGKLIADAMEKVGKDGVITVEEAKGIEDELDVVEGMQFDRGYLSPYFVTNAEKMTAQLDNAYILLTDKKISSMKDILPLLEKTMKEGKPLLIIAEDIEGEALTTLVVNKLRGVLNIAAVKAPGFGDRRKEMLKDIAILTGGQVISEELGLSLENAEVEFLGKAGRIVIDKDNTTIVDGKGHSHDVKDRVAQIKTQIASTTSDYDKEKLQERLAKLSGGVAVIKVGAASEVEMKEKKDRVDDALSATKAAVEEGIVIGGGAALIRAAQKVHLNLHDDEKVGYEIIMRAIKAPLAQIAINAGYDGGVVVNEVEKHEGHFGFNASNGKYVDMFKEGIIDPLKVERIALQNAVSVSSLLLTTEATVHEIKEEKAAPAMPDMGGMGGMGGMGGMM
Protocol: as §1

[2] = target: H. pylori urease (oligomeric, purified) (Helicobacter pylori, UniProt P14916 1-238; P69996 1-569); assay: SPR (BIAcore), mAb captured by rabbit anti-mouse antibody, H. pylori antigen injected; unit inferred
H. pylori urease (oligomeric, purified), sequence (P14916 whole entry, chain 1 of 2): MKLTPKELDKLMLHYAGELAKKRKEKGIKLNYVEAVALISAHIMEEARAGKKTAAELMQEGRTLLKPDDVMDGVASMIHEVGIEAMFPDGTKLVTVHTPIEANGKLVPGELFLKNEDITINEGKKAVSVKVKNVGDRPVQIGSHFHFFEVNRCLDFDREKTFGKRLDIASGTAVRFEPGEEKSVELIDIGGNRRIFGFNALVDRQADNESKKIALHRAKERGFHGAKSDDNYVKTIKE
H. pylori urease (oligomeric, purified), sequence (P69996 whole entry, chain 2 of 2): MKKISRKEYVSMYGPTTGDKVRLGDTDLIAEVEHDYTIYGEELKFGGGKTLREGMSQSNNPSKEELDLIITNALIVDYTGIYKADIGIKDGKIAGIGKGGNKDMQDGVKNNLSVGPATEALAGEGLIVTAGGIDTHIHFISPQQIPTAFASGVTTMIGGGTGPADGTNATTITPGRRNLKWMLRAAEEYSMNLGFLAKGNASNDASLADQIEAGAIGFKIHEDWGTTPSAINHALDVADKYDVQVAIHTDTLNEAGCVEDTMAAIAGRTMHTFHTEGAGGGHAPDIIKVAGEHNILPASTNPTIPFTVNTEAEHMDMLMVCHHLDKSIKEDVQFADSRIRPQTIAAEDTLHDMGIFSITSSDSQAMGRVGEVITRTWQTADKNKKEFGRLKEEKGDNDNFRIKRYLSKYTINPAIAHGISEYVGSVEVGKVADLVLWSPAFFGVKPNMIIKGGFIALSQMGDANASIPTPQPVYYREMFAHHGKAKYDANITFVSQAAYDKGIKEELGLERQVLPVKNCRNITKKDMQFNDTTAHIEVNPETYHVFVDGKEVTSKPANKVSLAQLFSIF
Protocol: First, a polyclonal rabbit-anti-mouse antibody was immobilised on the dextran matrix of the BIAcore CM5 glass carrier chip. By adding the first H. pylori antigen-specific monoclonal antibody (1. MAK; 100 μg/ml; 10 μl), it reacted with the immobilised catching antibody and the respective change was measured at the detector (ΔRU₁; RU Resonance Units). After adding the H. pylori antigen (45 μg/ml; 5 μl), it reacted with the first mAK. Then, the remaining free catching antibody was blocked with an unspecific mouse-antibody (1 mg/ml; 10 μl) and oligomeric epitopes by adding another first mAK (100 μg/ml; 10 μl). After the reaction then following of the second H. pylori-antigen-specific antibody (2nd mAK; 100 μg/ml; 10 μl) with the bound antigen, the change in the signal of the detector (ΔRU₂) was determined anew and was compared in percentage to the change at the detector after adding the 1st mAK (ΔRU₂/ΔRU₁). A ratio of ΔRU₂/ΔRU₁<10% indicated overlapping epitopes.

[3] = target: β-urease (large subunit) of H. pylori (Helicobacter pylori, UniProt P69996 1-569); assay: sandwich ELISA: polyclonal rabbit anti-H. pylori antigen as catcher, antigen diluted 1:2 from 50 ng/ml, mAb supernatant as detector; lowest antigen concentration with extinction >= 2x control
β-urease (large subunit) of H. pylori, sequence (P69996 whole entry): as the sequence (P69996 whole entry, chain 2 of 2) above
Protocol: as §1

B1: HP15m/3E8-D9-D6 (antibody, IgG1, V domains shown)
VH: VQLLEESGGGLVQPTGSLKLSCAASGFTFNSYAMYWVRQAPGKGLEWVARIRSKSDNYATYYANSVKDRLTISRDDSQNMLYLQMNNLKTEDTAMYYCVRDHDKFPFYYALDYWGPGTLVTVSS
VL: ELVLTQSPTIMSASLGERVTMTCTASSSVSSSYLHWYQQKPGSSPKLWIYSTSNLASGVPVRFSGSGSVTSYSLTISSMEAEDAATYYCHQYHRSPPTFGGGTKLEIK
notes: Murine; also called DSM ACC2355
- NWG (detection limit) [1]: 0.6 ng Ag/ml

B2: HP16m/2A5-E6-E5 (antibody, mouse IgG1, V domains shown)
VH: VQLLEESGPGLVAPSQSLSITCTVSGFSLSRYSVHWVRQPPGKGLEWLGMIWGGGSTDYNSGLKSRLSISNDNSKSQVFLKMNSLQTDDTAIYYCARNMGGRYPDYFDYWGQGTTLTVSS
VL: DIVLTQSPASLAVSLGQRATISCRASKSVSTSGYSYIHWYQQKPGQPPKLLIFLASNLESGVPARFSGSGSGTDFTLNIHPVEEEDAATYHCQHSRELPLTFGAGTKLELK
notes: also called DSM ACC2356
- NWG (detection limit) (Hsp60 of H. pylori): 3 ng Ag/ml

B3: HP8m/4H5-D4-C9 (antibody, V domains shown)
VH: VQLLEQSGAELVKPGASVKISCKASGYAFSTSWMNWVKQRPGKGLEWIGRIYPGDGDTNYNGKFKGKATLTADKSSSTAYMQLNSLTSEDSAVYFCVREDAYYSNPYSLDYWGQGTSVTVSS
VL: DILLTQSPAILSVSPGERVSFSCRASQSIGTRIHWYQQRTNGSPRLLIKYGSESISGIPSRFSGSGSGTDFSLSINSVESEDIADYYCQQSNTWPLTFGAGTKLELK
notes: also called DSM ACC2360; first monoclonal antibody that is specific to urease
- koff [2]: 4.5e-06 s⁻¹
- NWG (detection limit) [3]: 0.6 ng Ag/ml

B4: HP9.1m/3C2-F8-E2 (antibody, mouse IgG1, V domains shown)
VH: VQLLEESGGGLVKPGGSLQLSCSASGFTFSSHFMSWVRQTPEKRLEWVASISSGGDSFYPDSLKGRFAISRDNARNILFLQMSSLRSEDSAMYFCTRDYSWYALDYWGQGTSVTVSS
VL: ELQMTQSPSSLSASLGDTITITCHASQNINVWLSWYQQKPGDIPKLLIYKASNLHTGVPSRFSGSGSGTGFTLVISSLQPEDIATYYCQQGRSYPLTFGAGTKLELK
notes: also called DSM ACC2362; second monoclonal antibody that is specific to urease
- NWG (detection limit) [3]: 1.2 ng Ag/ml
